Measurements as given in patent publication EP4353742A1 (Todd Pharm Co., Ltd., dated 2024).

Biological target: FGFR1c
Test: cell-based or functional assay

Row | EC50 of FGFR1c activation (luciferase reporter, HEK293 cells expressing FGFR1c and β-Klotho), fold increase compared to the wild type | Binder
1 | 1.73 fold | FGF21 variant ① (Gln184Glu & Gln201His & Ala208Thr) (ligand) DSSPLLQFGGQVRQRYLYTDDAQQTEAHLEIREDGTVGGAADQSPESLLQLKALKPGVIQILGVKTSRFLCQRPDGALYGSLHFDPEACSFRELLLEDGYNVYQSEAHGLPLHLPGNKSPHRDPAPRGPARFLPLPGLPPALPEPPGILAPEPPDVGSSDPLSMVGPSHGRSPSYTS
2 | 6.03 fold | FGF21 variant ③ (combination of variants ① and ②) (ligand) DSSPLLQFGGQVRQRYLYTDDAQQTEAHLEIREDGTVGGAADQSPESLLQLKALKPGVIQILGVKTSRFLCQRPDGALYGSLHFDPEACSFRELLLEDGYNVYQSEAHGLPLHLPGNKSPHRDPAPRGPARFLPLPGLPPALPEPPGILAPEPPDVGSSDPLGMVGGGHGRSPSYTS
3 | 4.38 fold | FGF21 variant ② (Ser195Gly & Pro199Gly & Ser200Gly) (ligand) DSSPLLQFGGQVRQRYLYTDDAQQTEAHLEIREDGTVGGAADQSPESLLQLKALKPGVIQILGVKTSRFLCQRPDGALYGSLHFDPEACSFRELLLEDGYNVYQSEAHGLPLHLPGNKSPHRDPAPRGPARFLPLPGLPPALPEPPGILAPQPPDVGSSDPLGMVGGGQGRSPSYAS
